In article doi:10.1101/869594 (bioRxiv, 2019):
Several values for one entry are separate records, joined by “and”; a condition that tells them apart may be missing. Identical values can stand only once.

Target: the molecule itself
Experiment: crystal structure

B1: N-terminal membrane anchoring domain of mycobacterial Wag31 (domain or fragment)
chain: PLTPADVHNVAFSKPPIGKRGYNEDEVDAFLDLVENELTRLIEENSDLRQRINELDQEL
stoichiometry N: 2 and 4
